In patent publication US20260209316A1 (US Dept. of Health and Human Services, published 2026):
Like-named read-outs stand apart in the source and are kept apart here.

What was measured:
[1] = biological target: T1, mucin domain-deleted Sudan GP (GPdMuc) (Sudan virus (SUDV), UniProt Q7T9D9 33-632); assay: ELISA on coated GP (EC50)
T1 construct: also called Sudan GPdMuc; GP(S)dMuc

[2] = biological target: T1, mucin domain-deleted Sudan GP (GPdMuc); assay: ELISA on coated GP
[3] = biological target: T2, mucin domain-deleted Zaire GP (GPdMuc) (Ebola (Zaire) virus (EBOV), UniProt Q05320 33-632); assay: ELISA on coated GP
T2 construct: also called Zaire GPdMuc; GP(Z)dMuc

[4] = biological target: T3, mucin domain-deleted Zaire GP (GPdMuc) (Ebola (Zaire) virus (EBOV), UniProt Q05320 33-632); assay: BLI competition on Zaire GPdMuc (upper table); competitor 13C6
[5] = biological target: T3, mucin domain-deleted Zaire GP (GPdMuc); assay: BLI competition on Zaire GPdMuc (upper table); competitor 380L
[6] = biological target: T3, mucin domain-deleted Zaire GP (GPdMuc); assay: BLI competition on Zaire GPdMuc (upper table); competitor KZ52
[7] = biological target: T3, mucin domain-deleted Zaire GP (GPdMuc); assay: ELISA on coated GP
[8] = biological target: T3, mucin domain-deleted Zaire GP (GPdMuc); assay: BLI competition on Zaire GPdMuc (upper table); competitor 316L
[9] = biological target: T3, mucin domain-deleted Zaire GP (GPdMuc); assay: BLI competition on Zaire GPdMuc (upper table); competitor 15H10
[10] = biological target: T3, mucin domain-deleted Zaire GP (GPdMuc); assay: ELISA on coated GP; remark: listed apart in the source
[11] = biological target: T3, mucin domain-deleted Zaire GP (GPdMuc); assay: BLI competition on Zaire GPdMuc (upper table); competitor mAb114
[12] = biological target: T1, mucin domain-deleted Sudan GP (GPdMuc); assay: BLI competition on Sudan GPdMuc (lower table); competitor mAb166
[13] = biological target: T2, mucin domain-deleted Zaire GP (GPdMuc); assay: BLI competition on Zaire GPdMuc (upper table); competitor 13C6
[14] = biological target: T1, mucin domain-deleted Sudan GP (GPdMuc); assay: BLI competition on Sudan GPdMuc (lower table); competitor 15H10
[15] = biological target: T2, mucin domain-deleted Zaire GP (GPdMuc); assay: BLI competition on Zaire GPdMuc (upper table); competitor 380L
[16] = biological target: T2, mucin domain-deleted Zaire GP (GPdMuc); assay: BLI competition on Zaire GPdMuc (upper table); competitor KZ52
[17] = biological target: T1, mucin domain-deleted Sudan GP (GPdMuc); assay: ELISA on coated GP; remark: listed apart in the source
[18] = biological target: T2, mucin domain-deleted Zaire GP (GPdMuc); assay: ELISA on coated GP; remark: listed apart in the source
[19] = biological target: T2, mucin domain-deleted Zaire GP (GPdMuc); assay: BLI competition on Zaire GPdMuc (upper table); competitor mAb114
[20] = biological target: T2, mucin domain-deleted Zaire GP (GPdMuc); assay: BLI competition on Zaire GPdMuc (upper table); competitor 15H10
[21] = biological target: T4, mucin domain-deleted Sudan GP (GPdMuc) (Sudan virus (SUDV), UniProt Q7T9D9 33-632); assay: BLI competition on Sudan GPdMuc (lower table); competitor mAb166
[22] = biological target: T4, mucin domain-deleted Sudan GP (GPdMuc); assay: BLI competition on Sudan GPdMuc (lower table); competitor 15H10
[23] = biological target: T4, mucin domain-deleted Sudan GP (GPdMuc); assay: ELISA on coated GP
[24] = biological target: T4, mucin domain-deleted Sudan GP (GPdMuc); assay: ELISA on coated GP; remark: listed apart in the source
[25] = biological target: T2, mucin domain-deleted Zaire GP (GPdMuc); assay: BLI competition on Zaire GPdMuc (upper table); competitor 316L

B1: antibody 232L (antibody, V domains shown)
VH: KSQLVESGGGLVQPGGSLRLSCAASGFTFDAYAMHWVRQAPGEGLEWVTAISWSGSSTYYADSVKGRFTFSRDNAKNSLYLEMNSLRADDTAFYYCVKGGVYNWFDVWGPGVLVTVSS
VL: QSVLTQPPSVSGAPGQRVTISCTGSRSNIGGYYVSWYQQFPGTTPKLLIYQDNKRPSGVSDRFSGSKSGTSASLTITGLQTEDEADYYCLSYDSSLNGWVFGGGTRLTVL
B1 showed an EC50 [1] greater than 10 µg/mL, an EC50 [2] greater than 10 µg/mL and an EC50 [3] of 0.08 µg/mL.

B2: antibody mAb114 (antibody, V domains shown)
VH: EVQLVESGGGLIQPGGSLRLSCAASGFALRMYDMHWVRQTIDKRLEWVSAVGPSGDTYYADSVKGRFAVSRENAKNSLSLQMNSLTAGDTAIYYCVRSDRGVAGLFDSWGQGILVTVSS
VL: DIQMTQSPSSLSASVGDRITITCRASQAFDNYVAWYQQRPGKVPKLLISAASALHAGVPSRFSGSGSGTHFTLTISSLQPEDVATYYCQNYNSAPLTFGGGTKVEIK
For B2, the “% inhibition of binding” value [4] was 92%, the “% inhibition of binding” value [5] was 95% and the “% inhibition of binding” value [6] was 10%. For the same binder, the EC50 [7] was 0.00904 µg/mL, the “% inhibition of binding” value [8] was 96% and the “% inhibition of binding” value [9] was 3%. For the same binder, the EC50 [10] was 0.007 µg/mL.

B3: antibody 13C6 (antibody, V domains shown)
VH: QLTLKESGPGILKPSQTLSLTCSLSGFSLSTSGVGVGWFRQPSGKGLEWLALIWWDDDKYYNPSLKSQLSISKDFSRNQVFLKISNVDIADTATYYCARRDPFGYDNAMGYWGQGTSVTVSS
VL: DIVMTQSQKFMSTSVGDRVSLTCKASQNVGTAVAWYQQKPGQSPKLLIYSASNRYTGVPDRFTGSGSGTDFTLTISNMQSEDLADYFCQQYSSYPLTFGAGTKLELR
With B3 the “% inhibition of binding” value [5] was 95%, the “% inhibition of binding” value [6] was 16% and the “% inhibition of binding” value [11] was 97%. The “% inhibition of binding” value [8] was 95% and the “% inhibition of binding” value [9] was 1%.

B4: antibody 316L (antibody, V domains shown)
VH: EERLVESGGGLVQPGGSLRLSCAASGFTFGDYAMHWVRQVPGKSLEWLSGISWSGYTTYSADSVKGRFTISRDNAKNSLYLQMNRLRPEDTGLYYCVTLIGAIGIKDSLDVWGRGVLVTVSS
VL: QSVLTQPPSVSGAPGQRVTVSCSGSSSNIGAGNYVQWYQQLPGTAPKVLIYQTEKRPSGTSDRFSGSKSDTSASLTINGLQSEDEADYYCQVYDSNLNGWVFGGGTRLTVLG
notes: also called 316L mAb; mAb 316L
For B4, the “% inhibition of binding” value [12] was 80%, the “% inhibition of binding” value [13] was 98% and the “% inhibition of binding” value [14] was 14.5%. For the same binder, the “% inhibition of binding” value [15] was 92%, the “% inhibition of binding” value [16] was 13% and the EC50 [17] was 0.0272 µg/mL. For the same binder, the EC50 [18] was 0.0124 µg/mL, the “% inhibition of binding” value [19] was 100% and the “% inhibition of binding” value [20] was 26%.

B5: antibody 16F6 (antibody, V domains shown)
VH: EVQLVESGGGLVTPGGSLKLSCAASGFAFNYYDMFWVRQNTEKRLEWVAYINSGGGNTYYPDTVKGRFTISRDNAKKTLFLQMSSLRSEDTAMYYCARQLYGNSFFDYWGQGTSLTVSA
VL: DIVMTQSHKFMSTSVGDRVTITCKASQDVTTAVAWYQQKPGHSPKLLIYWASTRHTGVPDRFTGSGSGTDFTLTLNSVQAEDLALYYCQQHYSTPLTFGAGTKLELK
For B5, the “% inhibition of binding” value [21] was 0.2%, the “% inhibition of binding” value [22] was 7.8% and the EC50 [23] was 0.0558 µg/mL. The EC50 [24] was 0.05 µg/mL.

B6: antibody 380L (antibody, V domains shown)
VH: EVQLVESGGGLVQPGGSLTLSCAASGFTFGDYVMHWVRQVPGRGLEWLSAVSWSGYTTYSADSVKGRFTISRDNAKNSLYLQMSRLGTADTGLYYCVTLIGAIGIRDSFDAWGRGVLVTVSS
VL: QSVLTQPPSMSGAPGQRVTVSCTGSSSNIGAGNYVQWYQQLPGTAPKVLIYQTDKRPSGISDRFSGSKSGTSASLTISGLQSEDEADYYCQVYDSSLNGWVFGGGTRLTVL
notes: also called 380L mAb; mAb 380L
With B6 the “% inhibition of binding” value [12] was 81.9%, the “% inhibition of binding” value [13] was 97% and the “% inhibition of binding” value [14] was 3.6%. The “% inhibition of binding” value [16] was 13%, the EC50 [17] was 0.0238 µg/mL and the EC50 [18] was 0.012 µg/mL. The “% inhibition of binding” value [19] was 100%, the “% inhibition of binding” value [25] was 93% and the “% inhibition of binding” value [20] was 24%.
